# According to the nanobody polyreactivity screen of Harvey et al. (2022):
# Experiment: yeast display, Sf9 membrane polyspecificity reagent, FACS + sequencing; frameworks hold sequencing errors
# In short: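 Using colony PCR, genes from sorted yeast display clones were amplified, then sequenced on MiSeq at 2 × 250 and filtered by CDR length. The clones had been stained with 10% biotinylated, detergent-solubilized Sf9 membrane reagent for 1 hour at 4 °C and sorted by FACS into low and high (top ~1%) gates on anti-HA and streptavidin fluorescence. Polyreactivity labels come from the gate of origin.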
row,Sequence,polyreactivity (PSR sort gate)
1,QVQLVESGGGLVQAGGSLRLSCAASGSIFVHNAMGWYRHAPGKERELVAAITWSGGSTYYADSVKGRFTISRDNAKNTVYLQMNSLKPEDTAVYYCAAEDVAAQWAYESPTSYWYYYWGQGTQVTVSS,low polyreactivity
2,QVQLVESGGGLVQAGGSLRLSCAASGSIFVHYAMGWYRQAPGKERELVARISWRGNTYYADSVKGRFTISRDNAKNTVYLQMNSLKPEDTAVYYCATGQSVIYRYEYWGQGTQVTVSS,low polyreactivity
3,QVQLVESGGGLVQAGGSLRLSCAASGSIFVINAMGWYRQAPGKERELVAAISYSGTGTYYADSVKGRFTISRDNAKNTVYLQMNSLKAEDTAVYYCAADFYYRYRIYDYWGQGTQVTVSS,low polyreactivity
4,QVQLVESGGGLVQAGGSLRLSCAASGSIFVIYAMGWYRQAPGKERELVAAITYSGGSTYYADSVKGRFTISRDNAKNTVYLQMNSLKPEDTAVYYCAAVRDSRYYDYDYWGQGTQVTVSS,low polyreactivity
5,QVQLVESGGGLVQAGGSLRLSCAASGSIFVIYSMGWYRQAPGKERELVARITKSGGSTYYADSVKGRFTISRDNAKITVYLQMNSLKPEDTAVYYCNVGYGGSSDGGYDYWGQGTQVTVSS,high polyreactivity
6,QVQLVESGGGLVQAGGSLRLSCAASGSIFVKNVMGWYRQAPGKERELVAAISRGSSTYYADSVKGRFTISRDNAKNTVYLQMNSLKPEDTAVYYCAARGPYRLRNDEAFDYWGQGTQVTVSS,low polyreactivity
7,QVQLVESGGGLVQAGGSLRLSCAASGSIFVKYAMGWYRQAPGKERELVAAISRSGGSTYYADSVKGRFTISRDNAKNTVYLQMNSLKPEDTAVYYCAASNYKGMNYWGQGTQVTVSS,high polyreactivity
8,QVQLVESGGGLVQAGGSLRLSCAASGSIFVKYAMGWYRQAPGKERELVASITGRGGSTYYADSVKGRFTISRDNAKNTVYLQMNSLKPEDTAVYYCAARVASRHGWHNYWGQGSQVTVSS,high polyreactivity
9,QVQLVESGGGLVQAGGSLRLSCAASGSIFVLNAMGWYRQAPGKERELVAAITNVGSTYYADSVKGRFTISRDNAKNTVYLQMNSLKPEDTAVYYCNAVVATSKYTDYYWGQGTQVTVSS,low polyreactivity
10,QVQLVESGGGLVQAGGSLRLSCAASGSIFVLYAMGWYRQAPGKEREFVAAISRSGGSTYYADSVKGRFTISRDNAKNTVYLQMNSLKPEDTAVYYCAASSRLNRWNYYAFDYWGQGTQVTVSS,high polyreactivity
11,QVQLVESGGGLVQAGGSLRLSCAASGSIFVPYAMGWYRQAPGKERELVAAISNGDSTYYADSVKGRFTISRDNGKNTVYLQMNSLNPEDTAVYYCAAPYAGWRDGGDYWGQGTQVTVSS,low polyreactivity
12,QVQLVESGGGLVQAGGSLRLSCAASGSIFVPYAMGWYRQAPGKERELVAAISRGGDTNYADSVKGRFTISRDNAKNTVYLQMNSLKPEDTAVYYCNRARHQSSRWHGGYYYWGQGTQVTVSS,low polyreactivity
13,QVQLVESGGGLVQAGGSLRLSCAASGSIFVPYAMGWYRQAPGKERELVAAISSGGGRTYYADSVKGRFTIARDNAKNTVYLQMNSLKPEDTAVYYCAARYYIGYGHRTYGYDYWGQGTQVTVSS,high polyreactivity
14,QVQLVESGGGLVQAGGSLRLSCAASGSIFVPYAMGWYRQAPGKERELVAAISSRGGSTYYADSVKGRFTISRDTAKNTVYLQMNSLKPEDTAVYYCNTEISRNYYWALYGYWGQGTQVTVSS,low polyreactivity
15,QVQLVESGGGLVQAGGSLRLSCAASGSIFVPYAMGWYRQAPGKERELVAAITRSSGSTYYADSVKGRFTISRDNAKNTVYVQMNSLKPQDSAVYYCAADFLLEFVYWGQGTQLTVSS,low polyreactivity
16,QVQLVESGGGLVQAGGSLRLSCAASGSIFVPYTMGWYTQAPGKERELVASISYSGGTTYYADSVKGRFTISRDNAKNTVYLQMNSLKPEDTAVYYCAADWDESFSYRRYRHYDYWGQGTQVTVSS,low polyreactivity
17,QVQLVESGGGLVQAGGSLRLSCAASGSIFVQYAMGWYRQAPGKERELVATISDDGSTNYADSVKGRFTISRDNAKNTVYLQMNSLKPEDTAVYYCAADTYYYVGADDYWGQGTQVTVSS,low polyreactivity
18,QVQLVESGGGLVQAGGSLRLSCAASGSIFVRNAMGWCRQAPGKERELVAAITARGGSTYYADSVKGRFTISRDNAKNTVYLQMNSLKPEDTAVYYCARSYYYRGWAQWRYDYWGQGTQVTVSS,high polyreactivity
19,QVQLVESGGGLVQAGGSLRLSCAASGSIFVRNAMGWYRPAPGKERELVADITSRGSSTYYADSVKGRFTISRDNAKNTVYLQMNSLKPEDTAVYYCNAVRYYVRTYIYRHDRGMDYWGQGTQVTVSS,low polyreactivity
20,QVQLVESGGGLVQAGGSLRLSCAASGSIFVRNAMGWYRQAPGKEREFVAIRFSGATTYYADSVKGRFTISRDNAKNTVYLQMNSLKPEDTAVYYCAAVARTYGRTSYYWGQGTQVTVSS,high polyreactivity
21,QVQLVESGGGLVQAGGSLRLSCAASGSIFVRNAMGWYRQAPGKERELVAAITYSGSRTYYADSVKGRFTISRDNAKNTVYLQMNSLKPEDTEVYYCAKVRVLVDKWSTFYEYYYWGQGTQVTVSS,low polyreactivity
22,QVQLVESGGGLVQAGGSLRLSCAASGSIFVRNVMGWYRQAPGKERELVAGISWNGGSTFYADSVKGRFTISRDNAKNTVYLQMNSLKPEDTAVDYCATPYGRHGWFYLYDYWGQGTQVTVSS,low polyreactivity

row,Sequence,polyreactivity (PSR sort gate)
1,QVQLVESGGGLVQAGGSLRLSCAASGSIFVRYATMGWYRQAPGKERELVAAISRSGGSTYYADSVKGRFTISRDNAKNTVYLQMNSLKPEDTAVYYCANVSPSLRASGYDYWGQGTQVTVSS,high polyreactivity
2,QVQLVESGGGLVQAGGSLRLSCAASGSIFVRYTIVWYRQSTWKEMELVAAITSGGRTYYADSVKGRFTISRDNAKNTVYLQMNSLKPEDTAVYYSADVPHIRRYGFYYWGQGTQVTVSS,high polyreactivity
3,QVQLVESGGGLVQAGGSLRLSCAASGSIFVRYTMGWYRQAPGKERELVAAISWGGGSTYYADSVKGRFTISRDNAKNTVYLQMNSLKPEDTAVYYCNKRYIQLYDYWGQGTQVTVSS,low polyreactivity
4,QVQLVESGGGLVQAGGSLRLSCAASGSIFVRYTMGWYRQAPGKERELVAGISSRGGSTYYADSVKGRFTISRDNAKNTVYLQMNSLKPEDTAVYYCAATYFRRVVPGYNYWGQGTQVTVSS,high polyreactivity
5,QVQLVESGGGLVQAGGSLRLSCAASGSIFVSNAMGWYRQAPGKERELVAAITARDFSTYYADSVKGRFTISRDNAKNTVYLEMNSQKPEDTAVYYCAGNSSTYPSDDSYDYWGQGTQVTVSS,low polyreactivity
6,QVQLVESGGGLVQAGGSLRLSCAASGSIFVSNAMGWYRQAPGKERELVAAITARDVSTYYADSVKGRFTISRDNAKNTVYLQMISLKPEDTAVYYCAGNSSTYPSDDSYVYWGQGTQVTVSS,low polyreactivity
7,QVQLVESGGGLVQAGGSLRLSCAASGSIFVSNAMGWYRQAPGKERELVASISQDGGSTYYADSVKGRFTISRDNAKNTVYLQMNSLKPEDTADYYCAAKAEYYYYNGGTTYLVRYYYWGQGTQVTVSS,low polyreactivity
8,QVQLVESGGGLVQAGGSLRLSCAASGSIFVSNAMGWYRQAPGTERELVAAISGGGSTYYADSVKGRFTISRDNAKNTVFLQMNSLKPEDTAVYYCAKKGGHRTYGYDSWGQGTQVTVSS,low polyreactivity
9,QVQLVESGGGLVQAGGSLRLSCAASGSIFVSYAMGWYRQAPGKEREFVAAITRSGGSTYYADSVKGRFTISRDNAKNTVYLQMNSLKPEDTAVYYCAARSYLGAYRRYYWGQGTQVTVSS,high polyreactivity
10,QVQLVESGGGLVQAGGSLRLSCAASGSIFVSYAMGWYSQAPGKERELVAVISYSGVSTYYADSVKGRFTISRDNAKNTVYLQINSLKPEDTAVYYCATRQYGTRHILKYNYWGQGTQVTVSS,low polyreactivity
11,QVQLVESGGGLVQAGGSLRLSCAASGSIFVTYAMGWYRQAPGKERELVASITGRGGSTYYADSVKGRFTISRDNAKNTVYLQMNSLKPEDTAVYYCAARVASRHGWHNYWGQGTQVSVSS,high polyreactivity
12,QVQLVESGGGLVQAGGSLRLSCAASGSIFVVNGMGWYRQAPGKERELVAAITGDGTTYYADSVKGRFTISRDNAKNTVYLQMNSLKPEDSAVYYCAALFTPALSEYDYWGQGTQVTVSS,high polyreactivity
13,QVQLVESGGGLVQAGGSLRLSCAASGSIFVVYAMGWYRQAPGKERELVAAISWGIGSTYYADSVKGRFTISRDNAKYTVYLQMNSLKPEDTAVYYCAAETDIVLYDYWGQGTQVTVSS,low polyreactivity
14,QVQLVESGGGLVQAGGSLRLSCAASGSIFVVYAMGWYRQAPGKERELVAGISDGDNTNYADSVKGRVTISRDNAKNTVYLQMNSLKPEDTAVYYCNADGTSRNLEGFDYWGQGTQVTVSS,low polyreactivity
15,QVQLVESGGGLVQAGGSLRLSCAASGSIFVVYAMGWYRQAPGKERELVAGISGRDGSTYYADSVKGRFTISRDNGKNTVYLQMNSLKPEDTAVYYSARVYWGQGTQVTVSS,low polyreactivity
16,QVQLVESGGGLVQAGGSLRLSCAASGSIFVVYSMGWYRQAPGKERELVAGISYGDNTNYADSVKGRFTISRDNAKNTVYLQMNSLKPVDTAVYYCNADGTSRNLEGFDYWGQGTQVTVSS,low polyreactivity
17,QVQLVESGGGLVQAGGSLRLSCAASGSIFVYKAMGWYRQAPGKERELVAGITFIGGSTYYADSVKGRFTISRDNAKNTVYLQMNCLKPEDTAVYYCNADVAPGIFYGYDSWGQGTQVTVSS,low polyreactivity
18,QVQLVESGGGLVQAGGSLRLSCAASGSIFVYNAMGRYRQAPGKEREYVAAITYSGGSTYYADSVKGRFTISRDNAKNTVDLQMNSLKPEDTAVYYCAADYFQHVPKYGYWGQGTQVNVSS,low polyreactivity
19,QVQLVESGGGLVQAGGSLRLSCAASGSIFVYNAMGWYRPAPGKERELVAGITLIGGSTYYADSVKGRFTISRDNAKNTVYLQMNSLKPEDTAVYYCAVLVVGSTTQDEPYFSGVEHDYWGQGTQVTVSS,low polyreactivity
20,QVQLVESGGGLVQAGGSLRLSCAASGSIFVYNAMGWYRQAPGKERELVAAIDTVGSTNYADSVKGRFTISRDNAKNTVYLQMNSVKPVDPAVYYCAVVTPYWSFYEQVIPSNYWGQGTQVTVSS,low polyreactivity
21,QVQLVESGGGLVQAGGSLRLSCAASGSIFVYNAMGWYRQAPGKERELVAAISQRGGSTYYADSVKGRFTISRDNAKNTVYLQMNSLKPEDTAVYYCAAAPGDSGDDYWGQGTQVTVSS,low polyreactivity
